The Km is the substrate concentration at which the rate is half of its maximum.

The values that follow come from patent US6815189B1, “Gene from acremonium chrysogenum encoding a protein with cephalosporin C acetylhydrolase activity and methods of use of such gene” (Antibiotics, S.A.U., priority 1999, dated 2004).

This series has as its system [H][C@]12SCC(COC(C)=O)=C(C(=O)O)N1C(=O)[C@H]2NC(=O)CCC[C@@H](N)C(=O)O. The series is described as follows: Effect of substrate concentration on CPC-AH B activity (Lineweaver-Burk). Format: biochemical, Acremonium chrysogenum. As to conditions: other: CPC-AH B vs. CPC, 37.0 °C. Here is the method:
To quantify the enzymatic degradation of the CPC, a reaction mixture was prepared, based on that described by Fujisawa et al. (1975, Agric. Biol. Chem. 39: 1303-1309) that contained, in a total volume of 100 μl: Tris-HCl, pH 8.0, 50 mM; CPC, 20 mM and culture supernatant 75 μl. The mixture was incubated for 60 minutes at 37° C. and the reaction was stopped by adding 100 μl of methanol. The proteins precipitated were removed by centrifugation for 5 minutes at 14 000 rev/min in an Eppendorff centrifuge. Production of DAC was analysed by injecting 100 μl of the reaction mixture in an HPLC Beckman System Gold equipped with a μBondapack C18 column. Elution was performed using a mixture of solvents A (10 mM sodium acetate—acetic acid, pH 4.5) and B (100% acetonitrile) using a linear gradient from 0 to 3% of solvent B between the 0 and 2 minutes and constant 3% from minute 2 to 15 at a flow of 1.3 ml/min. The cephalosporins are detected by their absorbance at 260 nm. In these conditions DAC is eluted with a retention time of 3.1 min whereas for CPC this occurs at 8.3 min. Both compounds were identified by co-elution with standard samples of CPC and DAC.
With fractions obtained from ion exchange separation, tests of CPC-AH activity were performed by HPLC, varying the concentration of CPC. […]

Sequence of CPC-AH B (Hapsidospora chrysogenum ATCC 11550) (chain, as listed by the source): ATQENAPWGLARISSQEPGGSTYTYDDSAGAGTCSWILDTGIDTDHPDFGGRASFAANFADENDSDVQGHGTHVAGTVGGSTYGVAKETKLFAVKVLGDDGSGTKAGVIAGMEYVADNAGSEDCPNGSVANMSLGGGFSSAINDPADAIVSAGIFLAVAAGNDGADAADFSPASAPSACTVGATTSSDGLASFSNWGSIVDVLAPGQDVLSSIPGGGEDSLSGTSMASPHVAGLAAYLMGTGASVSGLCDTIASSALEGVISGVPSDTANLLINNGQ

Take “CPC-AH B (Hapsidospora chrysogenum ATCC 11550)”: the Michaelis constant (Km) was found to be 33.72 mM and the Vmax is recorded as 91.95 pKat/mg.
